In PMC4310620:

Experiments:
Assay in all cases: purified protein
Assay type in all cases: biochemical, Chromohalobacter israelensis
purified protein [1] = substrate: NCCO; settings: 50 mM L-glutamate, 5 mM ATP, 15 mM MgCl2, pH 7.9, 25 °C
purified protein [2] = substrate: N[C@@H](CCC(=O)O)C(=O)O; settings: 20 mM ethanolamine, 5 mM ATP, 15 mM MgCl2, pH 7.9, 25 °C
purified protein [3] = substrate: C[C@H](N)CO; settings: 50 mM L-glutamate, 5 mM ATP, 15 mM MgCl2, pH 7.9, 25 °C

B1: Csal_0679 (Chromohalobacter israelensis DSM 3043) (protein)
chain: MTNTLALDDLKTRVESGEIDTVLVCIVDMQGRLMGKRLHARHFVDHGWEETHCCNYLLATDLEMATPGGYASTSWQAGYGDYIMKPDLATLRCVPWLEGTAMVLCDLLDHRTHAEVPHAPRAILKRQLARLEAMGLEAIMATELEFFLFEKSLDEIRKGRFRDLQPISGYNEDYHIFQTTKEEHVLRPLRNHLHAAGIPVEGTKGEAGAGQEELNIRCAKALDTADYHTIAKHATKEIAWQQGRAVTFLSKWHHAHAGSSSHIHQSLWKQGLPAFHDERDALGMSALMKHYLAGLLKYAPDYTYFLAPYLNSYKRFQKGTFAPTRTVWSVDNRTAGFRLCAEGTRAVRIECRIGGSDLNPYLAMAGQLAAGIKGIEECLALPPPAEGDTYEGGSGLIPQNLRDAMEALRGSTMLREAMGEDVVDHYVRAAEVELEDFQRVVSDYEVARGFERC
- Km (purified protein [1]): 34 ± 4 µM
- kcat (purified protein [1]): 0.38 ± 0.009 s⁻¹
- kcat/Km (purified protein [1]): 11000 M⁻¹ s⁻¹
- Km (purified protein [2]): 7800 ± 1000 µM
- kcat (purified protein [2]): 0.4 ± 0.02 s⁻¹
- kcat/Km (purified protein [2]): 51 M⁻¹ s⁻¹
- Km (purified protein [3]): 100 ± 10 µM
- kcat (purified protein [3]): 0.35 ± 0.01 s⁻¹
- kcat/Km (purified protein [3]): 3400 M⁻¹ s⁻¹
